Assays:
[1] = molecular target: T1, human LPAR1 (Homo sapiens, UniProt Q92633, N35A); test: In vitro epitope analysis: transient-transfection CIFAT on human LPAR1 with residue substitutions to alanine; assay type: binding; conditions: human LPAR1 position 35 (N, N-terminus) substituted to alanine; binding of mAb with VH SEQ ID NO: 369, VL SEQ ID NO: 39
T1 construct: HA; expressed in transfected cells; host or cells: CHO-K1 (transient)
Protocol: (§1) CHO-K1 cells were seeded in clear 96-well plates at 20,000 cells per 200 μL full growth medium and incubated for 24 hours at 37° C. The following day, in a sterile tube, 0.0309 uL/well PEI (Generon, MW 160,000) was diluted into 10 uL/well transfection medium (DMEM supplemented with 2 mM L-glutamine and Penicillin-Streptomycin). The diluted PEI was added to 100 ng/well DNA encoding the target protein (human LPAR1 (SEQ ID NO: 62) unless otherwise stated), before vortexing immediately and incubating the mixture for 10 minutes at room temperature. 200 μL/well full growth medium was added to the PEI-DNA mixture, then medium in wells was taken off and 200 ul full growth medium/PEI/DNA mixture was added in the wells of the adherent cell plate. […] After washing and cell fixation with 4% PFA, the binding of the antibodies was detected using a goat anti-human Alexa Fluor 488 detection antibody (Invitrogen), incubated for 1 hour at room temperature. Fluorescence at 488 nm was measured using a BMG LABTECH ClarioStar plate reader and microscopy images were taken at 10× magnification.
(§2) Based on the epitope analysis presented in FIGS. 3 and 4, constructs were designed to test the important residues/interaction regions predicted in silico. […] CHO-K1 cells were transiently transfected with these plasm ids and the binding of an anti-LPAR1 mAb assessed to each of these receptor variants using protocol 1.11. […]

[2] = molecular target: T2, human LPAR1 (Homo sapiens, UniProt Q92633, Q286A); test: as above; assay type: binding; conditions: human LPAR1 position 286 (Q, ECD3) substituted to alanine
T2 construct: HA; expressed in transfected cells; host or cells: CHO-K1 (transient)
Protocol: as §1, §2

T2 sequence (Q92633 whole entry Q286A): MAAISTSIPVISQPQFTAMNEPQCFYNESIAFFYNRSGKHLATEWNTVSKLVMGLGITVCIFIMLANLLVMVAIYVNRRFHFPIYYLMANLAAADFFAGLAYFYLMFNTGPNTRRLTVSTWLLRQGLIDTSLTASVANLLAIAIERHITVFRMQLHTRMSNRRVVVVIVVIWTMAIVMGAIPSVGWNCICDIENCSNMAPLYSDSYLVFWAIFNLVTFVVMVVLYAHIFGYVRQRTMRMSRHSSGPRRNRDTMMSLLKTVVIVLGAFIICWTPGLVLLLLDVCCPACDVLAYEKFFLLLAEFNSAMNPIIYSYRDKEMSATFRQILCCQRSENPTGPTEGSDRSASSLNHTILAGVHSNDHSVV
T1 sequence (Q92633 whole entry N35A): as the sequence (Q92633 whole entry Q286A) above, with N35A, A286Q counted along it

B1: anti-LPAR1 mAb: mAb of the in vitro epitope analysis; VH of SEQ ID NO: 369 and VL of SEQ ID NO: 39 (antibody, V domains shown)
VH: QVQLVQSGSELKKPGASVKVSCKASGYTFTSSGISWVRQAPGQGLEWMGEILPRSGYTNYNQGFTGRFVFSADKSVSTAYLQISSLKAEDTAVYYCARDFASARYAMDYWGQGTTVTVSS
VL: SIQMTQSPSSLSASVGDRVTITCQASQSVRYNVAWYQQKPGKAPKLLIYYASNRYTGVPSRFSGSGSGTDFTFTISSLQPEDIATYFCQHHYSSPLTFGGGTKLEIK
modifications: REGION 1..120: note = >huVH4_Q61A97A99G104
Q: Which results are given for B1?
A: Epitope residue [1]: Inconclusive; Epitope residue [2]: Inconclusive

Source: patent US12599645B2, “Antibodies which bind to lysophosphatidic acid receptor 1 (LPAR1)” (DJS ANTIBODIES LTD, priority 2021, dated 2026)
